Measurements as given in the nanobody polyreactivity screen of Harvey et al. (2022).

Assay: yeast display, Sf9 membrane polyspecificity reagent, FACS + sequencing; frameworks hold sequencing errors
Outline: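 After 36–48 hours of galactose induction, yeast (Saccharomyces cerevisiae BJ5465) displaying a synthetic nanobody library were stained at 4 °C for 1 hour with 10% biotinylated, detergent-solubilized Sf9 membrane reagent. Streptavidin microbeads enriched the stained cells before FACS sorting into low and high (top ~1%) gates on anti-HA and streptavidin fluorescence. Each clone's polyreactivity label reflects its gate of origin.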

## QVQLVESGGGLVQAGGSLRLSCAASGFTFFTNAMGWYRKAPGKEREFVAAISGSGSRTYYADSVKGRFTISRDNAKNTVYLQMNSLIPEDTAVYYCAARVRGVYPFDYWGQGTQVTVSS
  polyreactivity (PSR sort gate): high polyreactivity

## QVQLVESGGGLVQAGGSHRLSCAASGRTFYRNAMGWYRPAPGKERELVAAITSGGGTTYADSVKGRFTISRDNAKNTVYLQMNSLKPEDTAVYYCAKRYNGRFRLGYEYWGQGTQVTVSS
  polyreactivity (PSR sort gate): high polyreactivity

## QVQLVESGGGLVQAGGSLRLSCAASGSTFESNAMGWYRQAPGKERELVAAISSSGGSTYYADSVKGRFTISRDNAKNTVYLQMNSLKPEDTAVYYCNKGGLSDYDYWGQGTQVTVSS
  polyreactivity (PSR sort gate): high polyreactivity

## QVQLVESGGGLVQAGGSLRLSCAASGRTFGRNAMGWYRPAPGKERELVATITRRGGSTYYADSVKGRFTISRDNAKNTVYLQMYSLKPEDTAVYYCNAGIWLGSFRQRFYYWGQGTQVTVSS
  polyreactivity (PSR sort gate): high polyreactivity

## QVQLVESGGGLVQAGGSLRLSCAASGYTFPLYAMGWSRQAPGKEREFVAAISKRSGTTYYADSVKGRFTISRDNAKNTVYLQMNSLKPEDTAVYYCAASNGYQAVTYDYWGQGTQVTVSS
  polyreactivity (PSR sort gate): high polyreactivity

## QVQLVESGGGLVQAGGSLRLSCAASGSIFNWYAMGWYRQAPGNERELVADISWSDGDTYYADSVKGRFSISRDNAKNTDYLQMNSLKPEDTAVYYSAAASNLYYPYYVLGDPYDYWGQGTQVTVSS
  polyreactivity (PSR sort gate): low polyreactivity

## QVQLVESGGGLVQAGGSLRLSCAASGRTLVHYAMGWYRQAPGKERELVAAISIGGDSTYAVSVKGRFTISRDNAKNTVYLQMNSLKPEDTAVYYCAASGWWDFFDPYFKFDYWGQGTQVTVSS
  polyreactivity (PSR sort gate): low polyreactivity

## QVQLVESGGGLVQAGGSLRLSCAASGRTSLVYAMGWYRQAPGKERELVAAITSSGGTTYYADSVKGRFTISRDNAKNTVYLQMNSLKPEDTAVYYCAADVDVSYWRMEYWGQGTQVTVSS
  polyreactivity (PSR sort gate): high polyreactivity

## QVQLVESGGGLVQAGGSLRLSCAASGRILWGYAMGWYRQAPGKERELVAAITWSTGTTSYADSVKGRFTISRDNAKNTVYLQMNSLKPEDTAVYYCARRQWRTQLVYGSRRDYWGQGTQVTVSS
  polyreactivity (PSR sort gate): low polyreactivity

## QVQLVESGGGLVQAGASLRLSCAASGSTFVIYTMGWYRQAPGKERDLVAAISWSGGITRYADSVKGRFTISRDNGKNTVYLQMNSLKPEDTAVYYCNASQWPSRFDYWGQGPQVTVSS
  polyreactivity (PSR sort gate): low polyreactivity

## QVQLVESGGGLVQAGGSLRLSCAASGYIIGGNAMGWYRQAPAKERELVAVISSRGGRTYYADSVKGRFTISRDNAKNTVSLQMNSQKPEDTAVYDCASIRYRGARGSGDKIFYYWGQGTQVTVSS
  polyreactivity (PSR sort gate): high polyreactivity

## QVQLVESGGGLVQAGGSLRLSCAASGFTFTIYTMGWYRQAPGKERELVAAISRRGGSTYYADSVKGRFTISRDNAKNTVYLQMNSLNPEDTAVYYCAAYVPQGYKLYYWGQGTQVTGSS
  polyreactivity (PSR sort gate): high polyreactivity

## QVQLVESGGGLVQAGGSLRLSCAASGFIFTYYAMGWYRAAPGKERELVAAIRGSGGRTYYADSVKGRFTISRDNAKNTVYLQMNSLKPEDTAVYYCTADPTWFGYVYYQYDYWGQGTQVTVSS
  polyreactivity (PSR sort gate): low polyreactivity

## QVQLVESGGGLVQAGGSLRLSCAASGRTFYKNTMGWYRQAPGKERELVAPITRRGGTPYYADSVKGRFTISRDNAKNTVYLQMNSLQPEDTAVYYCAVLTWYFLLQYGYYQEGDYWGQGTQVTVSS
  polyreactivity (PSR sort gate): low polyreactivity

## QVQLVESGGGLVQAGGSLRLSCAASGRTFYGYPMGWYRQAPGKERELVAAISWSGGSTYYADSVKGRFTISRDNAKNTVYLQMNSLKPEDTAVYYCAAYTYSFRANHDYWGQGTQVTVSS
  polyreactivity (PSR sort gate): high polyreactivity

## QVQLVESGGGLVQAGGSLRLSCAASGSTLNYYAMGWYRQAPGKERELVAAITWSGGSTSYADSVKGRFTISRDNAKNTVYLPMNSLKRDDTAVYYCATDFPTVQLYETDWLSSDMGYWGQGTQVNVSS
  polyreactivity (PSR sort gate): low polyreactivity

## QVQLVESGGGLVQAGGSLRLSCAASGIIFVSYMGWYRQAPGKERELVAAIRWSGGRTYYADAVKGRFTISRDNAKNTVYLQMNSLKPEDTAVYYCNKRVYYSRDVTSRVGRYDFWGQGTQVTVSS
  polyreactivity (PSR sort gate): high polyreactivity

## QVQLLESGGGLVQAGGSLRLSCAASGRTSYIYSMGWYRKAPGKEREFVADITWSGGSTYYADSVKGRFTISRDNAKNTVYLQMNSLKPEDTAVYYCNADLLSWWGVEYYYWGQGTQVTVSS
  polyreactivity (PSR sort gate): high polyreactivity

## QVQLVESGGGLVQAGGSLRLSCAASGGTFVYNAMGWYRQAPGKERELVAAIRVRGDTTYYADSVKGRFTISRDNAKNTVYLQMNSLKPEDTAVYYCAAYPDYSYYYWGQGTQVTVSS
  polyreactivity (PSR sort gate): high polyreactivity

## QVQLVESGGRLVQAGGSLRLSSAASGRIFKKNAMGRYRQAPGKERELVAAISYRGGSTYYADSVKGRFTISRDNAKNSVYLQMNSLKPVDTAVYYCNVGSRGCWDASDYDYWGQGTQVTVSS
  polyreactivity (PSR sort gate): high polyreactivity

## QVQLVESGGGLVQAGGSLRLSCAASGNIFSYYAMGLYRPAPGKERELVAAIDWNGGTTYYADSVKGRFTISRDNAKNTVYLQMNSLKPEDTAVYYCAAAWYWYWFLFEGAPYDYWGQGTQVTVSS
  polyreactivity (PSR sort gate): high polyreactivity

## QVQLVESGGGLVQAGGSLRLSCAASGSIFNGNAMGWYRQAPGKERELVAAISRNRGSTYYADSVKGRFTISRDNAKNTVYLQMNSLKPEDTAVYYCPTDLTVYYSYYWMYWGQGTQVTVSS
  polyreactivity (PSR sort gate): low polyreactivity

## QVQLQESGGGLVQAGGSLRQSCAASGNIFLGDTMGWYRPAPGKEREFVAGIARGGNPYYADSVKGRFTISRNNAKNTVYLQKNSLKPEDTAVHYCAVQRSHASDYNYWGQGTQVTVSS
  polyreactivity (PSR sort gate): low polyreactivity

## QVQLVESGGGLVQAGGSLRLSCAASGSIFVGYAMGWYRQAPGKERELVAAITGSGTRTYYADSVKGRFTISRDNAKNTVFLQMNSLKPEDTAVYYCAAPLSYKNVKYDYWGQGTQVTVSS
  polyreactivity (PSR sort gate): low polyreactivity

## QVQLVESGGGVVQAGGSLRISCDASGRTFWNYAMGWYRQAPGLERELVAVIRFSDGSTYYADSVKGRFTISRDNAKNTVYLQRNSLKPEDTAVYYCAAKGPRRWGSGFDYWGQGTQVTVSS
  polyreactivity (PSR sort gate): low polyreactivity

## QVQLVESGGGLVQAGGSLRLSCDASGSIFPVYAMGWYRQAPGKERELVAAISSRGGRTYYADSVKGRFTISRDNAKNTVYLQMNSLKPEDNAVYYCATDYATYYRLPSQYDYWGQGTQVTVSS
  polyreactivity (PSR sort gate): low polyreactivity

## QVQLVESGGGLVQAGGSLRLSCAASGSTFTHYAMGWYRQAPGKERELVAAITSSGGSTYYADSVKGRFTISRDNAKNTDYLQMNSLKPVDTAVYYCAARGSYRNRYRHDYWGQGTQVTVSS
  polyreactivity (PSR sort gate): high polyreactivity

## QVQLVESGGGLVQAAGSLRLSSAASGRTFVGYSMGWYRQAPGKERELVAAIHWSVGITYYADSVKGRFTISRDNAKNTVYLQMNSLKPEDTAVYYCAADGYDEPDLLVYEPWREDEYWGQGTQVTVSA
  polyreactivity (PSR sort gate): low polyreactivity

## QDQLVESGGGLVQAGGSLRLSCAASGRNFYRYVMGWYRQAPGKERELVAAITSSGGSTYYADSVKGRFTISRDNAKNTFYLQMNSLKPEDTAVYYCAADRYTRYRYYYWGKGTQVTVSS
  polyreactivity (PSR sort gate): high polyreactivity

## QVQLVESGGGLVKAGGSLRLSCAASGSIFNRYAMGWYRPAPGKEREFGARISKRGGGTYYADSVKGRFTISRDNAKNPVYLQMNRLKPEDTAVYYCNAGVPSAMDYCGQGTQVTVSS
  polyreactivity (PSR sort gate): high polyreactivity

## QVQLVESCGGLVQAGGSLRLSCAASGRTFYKNTMGWYRQAPGKERELVATISQRGGSTYYADSVKGRFTISRDNAKNTVFLQMHSLKPEDTAVYYCNARHYYIWWRSPTRTAMNYWGQGTQVTVSS
  polyreactivity (PSR sort gate): high polyreactivity

## QVQLVESGGGLVQAGGSLSLSCAASGRIFRRYAMGWYRQAPWKERELVAAITWSGGSTYADSVKGRFTISRDNAKNTVYLQMNSLKPEDTAVYYCAARYVTTKGSFVVGYGYWGQGTQVTVSS
  polyreactivity (PSR sort gate): high polyreactivity

## QVQLVESGGGLVQAGGSLRLSCAASGFNFTTYAMGSYRHAPGKERELVAAISGRGGTTDYADSVKGRFTISRDNAKNTVYLHMNSLKPEATAVYYCAADGYPGDDYWGQGTQVTVST
  polyreactivity (PSR sort gate): high polyreactivity

## QVQLVESGGGLVQAGGSLRLSCAASGFIFAYYAMGWYRQAPGKERELVAAITNSGGSTYYADSVKGRFTISRDNAKNTVYLQMNSLKPEDTAVYYCAAVIRPRYYQVRPRYDYWGQGTQVTVSS
  polyreactivity (PSR sort gate): low polyreactivity

## QVQLVESGGGLVQAGGSLRLRCAASGFTFYLYAMGWYRQAPGKERELVAAITWSGGRTYYADSVKGRFTNSRDNAKNTVYLQMNSLKPEYTAVYYCAAVVRKQLSAPSDYWGQGTQVTVSS
  polyreactivity (PSR sort gate): high polyreactivity

## QVQLQESGGGLVLAGGSLRLSCAASGSISAQAYMGWDRQAPGKEREHVAGINYGDNTNYADSVKGRFTISRDNEHSVSADEQPETGRYRGVLLRGFLELFYYYIYWGQGTQVTVSS
  polyreactivity (PSR sort gate): high polyreactivity

## QVQLVESGGGLVQAGGSLRLSCAASGSIFSQKAMVWYRQAPGKERELVASISTGDSSTYADSVKGRFTISRDNAKNTVYLQMNSLKREDTAVYYCNAYRYNALPWRYVGYDYWGQGTQVTVSS
  polyreactivity (PSR sort gate): low polyreactivity

## QVQLVESGGGLVQAGGSLRLSCAASGSTFKPNAMGWYRQAPGKERELVAAISGSGGSTYYADSVKGRFTISRDNAKNTVYLQMNSLKPEDTAVYYCAAYVYTIFSWYDYWGQGTQVTVSS
  polyreactivity (PSR sort gate): high polyreactivity

## QVQLVESGGGLVQAGGSLRLSCAASGLIFQEYAMGWYRQAPGKERELVAAITSGDSTNYADSVKGRFTISRDNAKNTVYLQMNSLKPEDTAVYYCNVDEAYYFVGEDNYDYWGQGTQVTVSS
  polyreactivity (PSR sort gate): low polyreactivity

## QFQLVESGGGLVQAGGSLRLSCAASGRIRDNARGWYRQAPGKERELVAAISSSGGSTYYADSVKGRFTISRDNAKNTVYLQMNSLKPEDTAVYYCNAVRTGKIFGSWGQGTQVTVSS
  polyreactivity (PSR sort gate): high polyreactivity

## QVQLVESGGGLVQAGGSLRLSCAASVSIFGYNTMGRYRQAPGKERELVARIRASGGSTYYADSVKGRFTISRDNAKNTVYLQMNSLKPEDTAVYYCAKYLRGSWVRQFGSTYDYWGQGTQVTVSS
  polyreactivity (PSR sort gate): high polyreactivity

## QVQLVESGGGLDQAGGSLRLSCAASGSIFVIYAMGWYRQAPGKERELVAAIRFSTGSTYYADSVKGRFTISRDNAKNTVYLQMNSLKPEDTAVYYCAARTFKYGSYAYEYWGQGTQVTVSS
  polyreactivity (PSR sort gate): high polyreactivity

## QVQLVESGGGLVQAGGSLRLSCAASGRIFKYYAMGWYRQAPGKERELVAAISWTGVSTYYADSVKGRFTISRDNAKNTVYLQMNSLKPEDTAVYYCNAQSYRYPKDDYWGQGTQVTVSS
  polyreactivity (PSR sort gate): high polyreactivity
